According to patent US11753479B2, “Nucleic acids encoding anti-OX40L antibodies” (Kymab Limited, priority 2014, dated 2023):

T1: hOX40L expressed on CHO-S cells (Homo sapiens, UniProt P23510)
T1 construct: expressed in transfected cells
T1 sequence (P23510 1-183): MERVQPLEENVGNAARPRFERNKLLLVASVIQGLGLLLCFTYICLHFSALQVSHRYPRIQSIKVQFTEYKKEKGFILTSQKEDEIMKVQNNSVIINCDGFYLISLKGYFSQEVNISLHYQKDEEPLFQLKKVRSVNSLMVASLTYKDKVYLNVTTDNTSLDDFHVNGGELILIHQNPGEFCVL


molecular target: T1, hOX40L expressed on CHO-S cells; assay: Binding to CHO-S expressed hOX40L (FACS); details: binding to CHO-S expressed hOX40L by FACS
Protocol: To determine whether wells selected using the primary screen selection criteria had the required characteristics set by the inventors, a number of assays were performed. Hybridoma clones selected as hits from primary screening were cultured for 3 days and the supernatants collected from hybridoma cells were tested to assess whether the secreted antibodies that bind to CHO-S expressed hOX40L, in some case bind to untransfected CHO-S cells and whether they neutralise recombinant OX40R Fc binding to CHO-S hOX40L and ability to neutralise OX40R binding to recombinant biotinylated hOX40L.
CHO-S cells expressing hOX40L or untransfected CHO-S cells, diluted in FACS buffer (PBS+1% w/v BSA+0.1% w/v NaN3) were distributed to a 96 well V-bottom plate (Greiner) at a density of 1×10^5 cells per well. Cells were washed with 150 μL of PBS and centrifuged at 300×g for 3 min. Supernatant was aspirated and 150 μL of PBS added. This wash step was repeated.
25 μL of hybridoma supernatant or purified antibody from hybridoma supernatant diluted in FACS buffer was added to the washed cells and incubated for 10-15 minutes. Reference Antibody or mouse IgG1 control antibody (Sigma) were diluted in FACS buffer to 20 μg/mL and 25 μL added to cells. 25 μL of human OX40R Fc (in-house) diluted to 1000 ng/mL in FACS buffer were then added to wells. Cells were incubated at 4° C. for 30 minutes.
Cells were washed twice with 150 μL of PBS centrifuging after each wash step and aspirating supernatant (centrifuged at 300×g for 3 minutes). […]
To fix cells 100 μL 2% v/v paraformaldehyde was added and cells incubated for 30 minutes at 4° C., cells were pelleted by centrifugation 300×g and the plates and resuspended in 50 μL of FACS buffer. PE and APC signal intensity (geomean) was measured by flow cytometry using a BD FACS Array instrument.
% of control binding was calculated using geomean fluorescence as described in equation 1 where total binding was defined as reference antibody at 10 μg/mL and non-specific binding as mouse IgG1 antibody at 10 μg/mL. % receptor binding was calculated using Equation 3. […]

Row | FACS Binding | Molecule
1 | YES | 2D10 (hybridoma): murine/human chimeric anti-OX40L antibody 2D10 purified from hybridoma supernatant (antibody, V domains shown) VH: EVQLVESGGGLVQPGGSLRLSCAASGFTFSNYAMNWVRQAPGKGLEWVSTISGSGGATRYADSVKGRFTISRDNSRNTVYLQMNSLRVEDTAVFYCTKDRLIMATVRGPYYYGMDVWGQGTTVTVSS VL: DIQMTQSPSSLSASVGDRVTITCRASQSISSYLNWYQQKPGKAPNLLIYAASSLQSGVPSRFSGSGSETDFTLTISSLQPEDFATYYCQQSHSVSFTFGPGTKVDIK
2 | YES | 9H04 (hybridoma): murine/human chimeric anti-OX40L antibody purified from hybridoma supernatant (protein, listed as Homo Sapiens, VH only; VL and constant regions missing, murine/human chimeric anti-OX40L antibody purified from hybridoma supernatant) QVQLVESGGGLVKPGGSLRLSCAASRFTLSDYYMTWIRQAPGKGLEWVSYISSSGNTIYYADSVKGRFTISRDNAKNSLYLQMNSLRAEDTAVYYCARDLSGSYWDYYYGMDVWGQGTTVTVSS
3 | YES | 10A07 (hybridoma): murine/human chimeric anti-OX40L antibody 10A07 purified from hybridoma supernatant (antibody, V domains shown) VH: EVQLVESGGVLVQPGGSLRLSCAASGFTFSSYIMTWVRQAPGKGLEWVSGISGSGGGTYYADSMKGRFTISRDNSKNTLYLQMNSLRVEDTAVYYCAKDRLGPITLVRGGYYYGMDVWGQGTTVTVSS VL: DIQMTQSPSSLSASVGDRVTITCRASQSISDYLNWYQQKPGKAPKFLIYAASSLQSGVPSRFSGSGSGTDFTLTVSSLQPEDFATYYCQQSYSTPRTFGQGTRVEIK
